Experimental data taken from patent US20210300985A1 (published 2021).

Columns and labels:
Assay in all cases: competition binding; FIG. 35A
HLA-DRB1*1301 = HLA-DRB1*1301 (human)
HLA-DRB1*1101 = HLA-DRB1*1101 (human)
HLA-DRB1*0101 = HLA-DRB1*0101 (human)
HLA-DRB1*0701 = HLA-DRB1*0701 (human)
HLA-DRB1*0401 = HLA-DRB1*0401 (human)
HLA-DRB1*1501 = HLA-DRB1*1501 (human)
HLA-DRB1*0301 = HLA-DRB1*0301 (human)

Binder | IC50 (HLA-DRB1*1301) [µM] | IC50 (HLA-DRB1*1101) [µM] | IC50 (HLA-DRB1*0101) [µM] | IC50 (HLA-DRB1*0701) [µM] | IC50 (HLA-DRB1*0401) [µM] | IC50 (HLA-DRB1*1501) [µM] | IC50 (HLA-DRB1*0301) [µM]
KIVFKNMASRPYSIY [SEQ ID NO: 3 (KIVFKNMASRPYSIY)] | 2.96 | 4.36 | 2.17 | 7.03 | 20.1 | 2.69 | 78.6
ESNIMSTINGYVPES [SEQ ID NO: 5 (ESNIMSTINGYVPES)] | – | – | – | 2.79 | 96.4 | 4.22 | 80.5

Binders with a lower IC50 (HLA-DRB1*1501), results first:

IC50 (HLA-DRB1*1301) [µM] | IC50 (HLA-DRB1*1101) [µM] | IC50 (HLA-DRB1*0101) [µM] | IC50 (HLA-DRB1*0701) [µM] | IC50 (HLA-DRB1*0401) [µM] | IC50 (HLA-DRB1*1501) [µM] | IC50 (HLA-DRB1*0301) [µM] | Binder
84.4 | 33.7 | < 1 | < 1 | 30.6 | < 1 | – | SHEFHAINGMIYSLP [SEQ ID NO: 7 (SHEFHAINGMIYSLP)]
– | – | 1.92 | – | – | 2.02 | – | EKDIHSGLIGPLLI [SEQ ID NO: 6 (EKDIHSGLIGPLLI)]
